The target of the test is TEM-1 β-lactamase (UniProt P62593 24-286). In words: enzyme inhibition assay.

Numbering of substitutions follows the chain as printed.

Sequence of TEM-1 β-lactamase (P62593 24-286): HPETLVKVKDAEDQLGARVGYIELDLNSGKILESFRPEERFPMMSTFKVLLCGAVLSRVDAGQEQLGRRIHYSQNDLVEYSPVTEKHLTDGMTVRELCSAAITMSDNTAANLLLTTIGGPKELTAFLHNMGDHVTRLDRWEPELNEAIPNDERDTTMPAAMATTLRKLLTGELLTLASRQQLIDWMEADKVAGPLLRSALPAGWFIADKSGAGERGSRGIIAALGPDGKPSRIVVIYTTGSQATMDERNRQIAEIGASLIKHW

B1: BLIP Asp49Ser mutant (natural protein)
chain: AGVMTGAKFTQIQFGMTRQQVLDIAGAENCETGGSFGDSIHCRGHAAGSYYAYATFGFTSAAADAKVDSKSQEKLLAPSAPTLTLAKFNQVTVGMTRAQVLATVGQGSCTTWSEYYPAYPSTAGVTLSLSCFDVDGYSSTGFYRGSAHLWFTDGVLQGKRQWDLV
B1 returned a Ki of 16 nM.

B2: BLIP Glu73Tyr mutant (natural protein)
chain: B1 chain with S49D, E73Y
B2 yielded an inhibition constant Ki of 3.7 nM.

B3: BLIP Glu31Gln mutant (natural protein)
chain: B1 chain with E31Q, S49D
Regarding B3, the Ki turned out to be 1.4 nM.

B4: BLIP Phe142Gly mutant (natural protein)
chain: B1 chain with S49D, F142G
B4 showed a Ki of 12 nM.

B5: BLIP Trp112Arg mutant (natural protein)
chain: B1 chain with S49D, W112R
Regarding B5, the Ki was 3.9 nM.

Values taken from publication PMC2728291 (Journal of molecular biology, 2009).
